# Patent publication US20250388643A1, “GLUCAGON-LIKE PEPTIDE-2 COMPOSITIONS AND METHODS OF MAKING AND USING SAME” (Amunix Pharmaceuticals, Inc., priority 2011, published 2025)
# Entries after “also recorded” stand apart in the source; their conditions may differ.
# T1: GLP2 G-protein coupled receptor (Homo sapiens, UniProt O95838)
# T1 construct: host or cells: Chem-11 cell
# T1 sequence (O95838 1-553): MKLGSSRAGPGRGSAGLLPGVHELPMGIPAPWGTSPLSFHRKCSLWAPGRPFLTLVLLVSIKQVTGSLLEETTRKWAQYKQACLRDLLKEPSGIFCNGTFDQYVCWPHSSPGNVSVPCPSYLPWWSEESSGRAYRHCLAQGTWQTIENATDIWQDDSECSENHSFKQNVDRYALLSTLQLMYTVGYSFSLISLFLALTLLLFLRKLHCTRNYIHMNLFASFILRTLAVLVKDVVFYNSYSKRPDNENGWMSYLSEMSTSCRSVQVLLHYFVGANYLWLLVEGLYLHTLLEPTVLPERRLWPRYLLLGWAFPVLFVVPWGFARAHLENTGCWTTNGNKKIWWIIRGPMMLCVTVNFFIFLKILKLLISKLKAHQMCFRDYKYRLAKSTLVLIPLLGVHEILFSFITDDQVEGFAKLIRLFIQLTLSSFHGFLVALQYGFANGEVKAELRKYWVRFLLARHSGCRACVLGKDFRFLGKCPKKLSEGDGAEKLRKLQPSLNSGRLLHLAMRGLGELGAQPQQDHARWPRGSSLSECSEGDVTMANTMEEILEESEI
# Tests used:
# [1] = target: T1, GLP2 G-protein coupled receptor; assay: GLP2R calcium flux potency assay (GPCR Profiler, in vitro receptor binding); type: cell-based; settings: calcium flux GLP2R cell assay
# Protocol: A receptor binding assay was performed using a GPCR Profiler assay (Millipore) to assess GLP2-2G-XTEN preparations (including AP690). The assay employed a transfected GLP2R cell line (Millipore, Cat #HTS164C) consisting of a Chem-11 human cell stably transfected with the GLP2 G-protein coupled receptor and a G alpha protein that stimulates calcium flux upon agonism of the GLP2 receptor.
# [2] = test system: small intestine growth in rats; assay: Intestinotrophic growth in normal rats (small intestine weight and length); type: in vivo, rat
# Protocol: To determine the intestinotrophic properties of GLP2-XTEN, small intestine growth in rats was measured as a primary pharmacodynamic endpoint. […] GLP2-2G-XTEN was dosed at 25 nmol/kg once daily for 12 days. After sacrifice, a midline incision was made, the small intestines were removed, stretched to their maximum length and the length recorded. The fecal material was flushed from the lumen and the small intestinal wet weight recorded. The small intestine length and weight data were analyzed with an ANOVA model with a Tukey/Kramer post-hoc test for pairwise comparisons, with significance at p=0.05.
# [3] = test system: DSS-induced intestinal colitis in C57Bl/6 mice; assay: Murine acute DSS-induced colitis model; type: in vivo, mouse
# Protocol: To determine the efficacy of GLP2-XTEN, the GLP2-2G-XTEN-AE864 fusion protein was evaluated in a mouse model of intestinal inflammatory colitis. […] A naïve, non-treated control group (group 1) was given normal drinking water for the duration of the experiment. […] Tissues were fixed in formalin and then transferred to ethanol for staining and histopathology. The anatomical data was analyzed with an ANOVA model with a Tukey/Kramer post-hoc test for pairwise comparisons, with significance at p=0.05.
# [4] = test system: indomethacin-induced intestinal inflammation in Wistar rats; assay: Rat Crohn's Disease indomethacin-induced intestinal inflammation model, Study 1; type: in vivo
# Protocol: To determine the efficacy of GLP2-XTEN using single dose or qd dosing, the GLP2-2G-XTEN-AE864 fusion protein was evaluated in a rat model of Crohn's Disease of indomethacin-induced intestinal inflammation in three separate studies.
# Study 1: Intestinal inflammation was induced in eighty male Wistar rats (Harlan Sprague Dawley) using indomethacin administered on Days 0 and 1 of the experiment. The rats were divided into seven treatment groups for treatment according to Table 19.
# All treatments were administered per the schedule starting on Day −3 of the experiment. Body weights were determined daily. Groups 3 and 5 were dosed equimolar/day. On Day 2 (24 hours post-2nd indomethacin dose), the animals were prepped for sacrifice and analysis. Thirty minutes prior to sacrifice, the rats were injected intravenously with 1 ml 1% Evans Blue dye, in order to visualize ulcers and extent of inflammation by histopathology analysis. The rats were anesthetized (SOP 1810), blood samples were removed to determine the concentration of GLP-2-2G-XTEN using the anti-XTEN/anti-GLP2 ELISA method. The rats were euthanized then necropsied and scored by gross examination of the intestines for the presence of adhesions; i.e., none=0, mild=1, moderate=2, or severe=3. The small intestines were removed and the length of each was recorded. In each small intestine, a longitudinal incision was made and the interior was examined. The degree and length of the ulcerated area was recorded as a score; i.e., none=0, few=1, multiple=2, or continuous=3. For TNFα determination, intestinal samples were thawed and homogenized in a total of 20 ml with DPBS. The supernatants were equilibrated to room temperature and assayed for TNFα by ELISA (R&D Systems, Cat. RTA00, lot 281687, exp. 7 Sep. 2011). The samples for Group 1 were assayed undiluted. The samples for Groups 2-7 were diluted 1:4. For histopathology, the small intestines were gently washed with saline to remove the fecal material and were blotted to remove excess fluid. Each small intestine was weighed then processed for histopathology examination to quantitate the degree of inflammation; i.e., 0.0%=0, 1-33%=1, 34-66%=2, 67-100%=3.
# [5] = normal Sprague-Dawley rats, SC 12 days, peptide 12.5 nmol/kg twice daily, fusion protein 25 nmol/kg once daily
molecule,measurement,setting,value
GLP2-2G-XTEN_AE864: fusion protein of GLP-2 with glycine at position 2 linked at the C-terminus to XTEN AE864; sequence of FIG. 28 (SEQ ID NO: 798) (protein) HGDGSFSDEMNTILDNLAARDFINWLIQTKITDGGSPAGSPTSTEEGTSESATPESGPGTSTEPSEGSAPGSPAGSPTSTEEGTSTEPSEGSAPGTSTEPSEGSAPGTSESATPESGPGSEPATSGSETPGSEPATSGSETPGSPAGSPTSTEEGTSESATPESGPGTSTEPSEGSAPGTSTEPSEGSAPGSPAGSPTSTEEGTSTEPSEGSAPGTSTEPSEGSAPGTSESATPESGPGTSTEPSEGSAPGTSESATPESGPGSEPATSGSETPGTSTEPSEGSAPGTSTEPSEGSAPGTSESATPESGPGTSESATPESGPGSPAGSPTSTEEGTSESATPESGPGSEPATSGSETPGTSESATPESGPGTSTEPSEGSAPGTSTEPSEGSAPGTSTEPSEGSAPGTSTEPSEGSAPGTSTEPSEGSAPGTSTEPSEGSAPGSPAGSPTSTEEGTSTEPSEGSAPGTSESATPESGPGSEPATSGSETPGTSESATPESGPGSEPATSGSETPGTSESATPESGPGTSTEPSEGSAPGTSESATPESGPGSPAGSPTSTEEGSPAGSPTSTEEGSPAGSPTSTEEGTSESATPESGPGTSTEPSEGSAPGTSESATPESGPGSEPATSGSETPGTSESATPESGPGSEPATSGSETPGTSESATPESGPGTSTEPSEGSAPGSPAGSPTSTEEGTSESATPESGPGSEPATSGSETPGTSESATPESGPGSPAGSPTSTEEGSPAGSPTSTEEGTSTEPSEGSAPGTSESATPESGPGTSESATPESGPGTSESATPESGPGSEPATSGSETPGSEPATSGSETPGSPAGSPTSTEEGTSTEPSEGSAPGTSTEPSEGSAPGSEPATSGSETPGTSESATPESGPGTSTEPSEGSAPG,potency compared to GLP2-2G,[1],about 2%
same,small intestine growth compared with GLP2-2G peptide,[2]; equal nmol/kg dosing,as good or better than GLP2-2G peptide
same,increase in small intestine length,[2]; [5],9%
same,increase in small intestine weight,[2]; [5],31%
same,increase in small intestine length,"[2]; normal rats, 25 nmol/kg once daily for 12 days",10 cm
same,histopathology of small intestine,"[3]; DSS-treated mice, 6 mg/kg qd",normal mucosal architecture with elongated villi densely populated with columnar epithelial and goblet cells
same,loss of body weight,"[3]; DSS-treated mice, SC days 1-10, peptide BID, fusion protein QD, any dose",neither the mice treated with GLP2-2G peptide nor any of the groups of mice treated with any dose of GLP2-2G-XTEN mice showed a reduced loss of body weight
same,protection of the intestines from inflammatory effects of DSS,[3]; conclusion of the experiment,"protected the intestines from the inflammatory effects of DSS, with maintenance of normal villi and mucosal architecture"
same,small intestine weight,"[3]; high dose group (6 mg/kg), compared to control groups 1 and 2, day 10",increase in small intestine weight
same,small intestine weight,"[3]; medium dose group (2 mg/kg), compared to group 1, day 10",increase in small intestine weight
same,small intestine weight,"[4]; 0.5 mg/kg peptide, both fusion protein groups, compared to diseased control Group 2, FIG. 21C",significant increase
same,ulceration score,[4]; 6 mg/kg fusion protein,not significantly different from the non-diseased control
same,scores of adhesions and transulceration,[4]; 2 and 6 mg/kg fusion protein,not significantly different from the non-diseased control
same,small intestine length,[4]; FIG. 21B,significant increase; also recorded: length equivalent to the non-diseased control
same,ulceration (gross pathology scoring of small intestine),[4]; FIG. 21D,significant decreases in ulceration
same,small intestine inflammation score,[4]; FIG. 21F,neither the GLP-2-2G peptide nor the GLP-2-2G-XTEN fusion protein treatments showed a significant effect on inflammation
same,body weight at termination,"[4]; compared to disease control (Group 2), FIG. 21A",demonstrated a significant increase
same,scores of adhesions and transulceration,"[4]; compared to diseased control (Group 2), FIG. 21E",significant decreases
same,TNFα in small intestine (ELISA),"[4]; compared to diseased control Group 2, FIG. 21G",significantly decreased cytokine levels
same,efficacy in improving indomethacin-induced small intestine damage,[4]; equal nmol/kg dosing,as good or better than GLP2-2G peptide
